{"source": "patent EP4785962A1", "about": "“ANTIBODY-DRUG CONJUGATE TARGETING TROP2, AND PREPARATION METHOD AND USE THEREFOR” (priority 2023, dated 2025)", "molecules": {"B1": {"name": "hTINA1-DXd: control ADC: antibody hTINA1 conjugated with Linker-DXd, average DAR 4.3; TROP2-ADC from Daiichi Sankyo (conjugate, chains of the INN, looked up)", "VH": "QVQLVQSGAEVKKPGASVKVSCKASGYTFTTAGMQWVRQAPGQGLEWMGWINTHSGVPKYAEDFKGRVTISADTSTSTAYLQLSSLKSEDTAVYYCARSGFGSSYWYFDVWGQGTLVTVSS", "VL": "DIQMTQSPSSLSASVGDRVTITCKASQDVSTAVAWYQQKPGKAPKLLIYSASYRYTGVPSRFSGSGSGTDFTLTISSLQPEDFAVYYCQQHYITPLTFGQGTKLEIK", "modifications": "deruxtecan (Linker-DXd), DAR 4.3", "notes": "control ADC: antibody hTINA1 conjugated with Linker-DXd, average DAR 4.3; TROP2-ADC from Daiichi Sankyo"}}, "key": {"[1]": {"tested_on": "human hypopharyngeal carcinoma squamous cell line FaDu", "test": "In vitro cytotoxicity test, FaDu cells, 6 days", "type": "cell-based", "conditions": "6 days of culture", "description": "(§1) 10% FBS (SH30406.05, HYCLONE) was added to RPMI 1640 (22400-071, Gibco), and the mixture was mixed well to prepare a BxPC3 cell (ATCC) growth medium. BxPC3 or FaDu cells were adjusted to a concentration of 50000 cells/mL with a growth medium, seeded into a 96-well white-bottom plate (167008, NUNC) at 50 µL per well (2500 cells/well), and incubated overnight in an incubator at 37 °C. The antibody was diluted with growth medium and serially diluted 5-fold from 200 nM (2×) to obtain 9 gradients, with the final concentration being […]. The diluted antibody-drug conjugate or control was added at 50 µL/well, and the total volume was 100 µL. […] The cell pellet was fully lysed by shaking on a plate shaker for 5 min, and the luminescence signal was stabilized by standing at room temperature for 10 min. The culture plate was tested on a microplate reader (spectra MAX i3x, Molecular Divices), the […] were taken, and the cell viability was calculated. […]\n(§2) The cell proliferation inhibition rate after 6 days of culture was calculated using the following formula.\n(§3) Cell proliferation inhibition rate (%) = […], where a: the average value of experimental sample-added wells after 6 days of culture; b: the average value of control medium-added wells after 6 days of culture. The data were fitted by GraphPad Prism and the IC50 of the drug was calculated (Table 4)."}, "[2]": {"tested_on": "human pancreatic cancer cell line BxPC-3", "test": "In vitro cytotoxicity test, BxPC3 cells, 6 days", "type": "cell-based", "conditions": "BxPC3, 6 days of culture", "description": "as §1, §2, §3"}, "[3]": {"test": "ADC in vivo stability assay in mice (serum ELISA for ADC and total antibody)", "set-up": "species or system Balb/c mice", "conditions": "10 mg/kg via the tail vein", "description": "• 1. The antibody-drug conjugate was injected into Balb/c mice (Vital River) via the tail vein at a dose of 10 mg/kg, and blood was collected at 0.083 h, 0.5 h, 2 h, 6 h, 24 h, 48 h, 96 h, 168 h, 336 h, and 504 h after administration (FIG. 10A). The blood samples were left to stand at room temperature and centrifuged to collect serum, so as to test the stability of the drug in the mice. • 2. Antibody detection: TROP2 protein (ACRO, cat: TR2-H5223, lot: 2573-2316F1-1B9) was coated and incubated overnight at 4 °C (FIG. 10A). The coating protein solution was removed, and 300 µL of wash buffer (0.05% Tween 20) was added to each well for repeated washing 3 times. 200 µL of blocking solution (5% skim milk powder) was added to each well, and the plate was blocked at room temperature for 2 h. The blocking solution was discarded, and the plate was washed 3 times with 300 µL of wash buffer per well. The diluted standards, quality control samples, and mouse serum samples to be tested were added to the well plate and incubated at room temperature for 2 h. The sample solution was discarded, and 300 µL of wash buffer was added to each well for 3 times of repeated washing. Anti-hFc-HRP (BETHYL, cat:A80-104P, lot: 97) was diluted 20000-fold and added at 100 µL/well, and the plate was incubated at room temperature for 1 h. The liquid was removed, and 300 µL of wash buffer was added to each well for 6 times of repeated washing. 100 µL of TMB substrate (Solarbio, cat:PR1200, lot: 20230418) was added to each well, and the color development was performed at room temperature for 5-10 min in the dark. 50 µL of ELISA stop solution (Beijing Solarbio C1058 20190620) was added to each well, medium-speed shaking for 10 s, within 30 min, the OD values at 450 nm and 620 nm were read on a microplate reader (USA, Thermo Multiskan FC AS-A1-008). • 3. Antibody-drug conjugate ADC detection: an anti-payload antibody 18E7C9 (innovent, lot: 20220424) was coated and incubated at 4 °C overnight (FIG. 10A). The coating protein solution was discarded, and 300 µL of wash buffer (0.05% Tween 20) was added to each well for 3 repeated washes. 200 µL of blocking solution (5% skim milk powder) was added to each well, and the plate was blocked at room temperature for 2 h. The blocking solution was discarded, and the plate was washed 3 times with 300 µL of wash buffer per well. The diluted standards, quality control samples, and mouse serum samples to be tested were added to the well plate and incubated at room temperature for 2 h. The sample solution was discarded, and 300 µL of wash buffer was added to each well for 3 times of repeated washing. Biotinylated TROP2 protein (ACRO, cat: TR2-H82E5, lot:BV3055-91PF1-ZC) was added to the microplate and incubated at room temperature for 2 h. The liquid was removed, and 300 µL of wash buffer was added to each well for 3 times of repeated washing. SA-HRP (Biolegend, cat:405210, lot: B339457) was diluted 20,000-fold and added at 100 µL/well, and the plate was incubated at room temperature for 1 h. The liquid was removed, and 300 µL of wash buffer was added to each well for 6 times of repeated washing. 100 µL of TMB substrate (Solarbio, cat:PR1200, lot: 20230418) was added to each well, and the color development was performed at room temperature for 5-10 min in the dark. 50 µL of ELISA stop solution (Beijing Solarbio C1058 20190620) was added to each well, medium-speed shaking for 10 s, within 30 min, the OD values at 450 nm and 620 nm were read on a microplate reader (USA, Thermo Multiskan FC AS-A1-008)."}, "[4]": {"conditions": "once every three weeks for a total of 3 times; WO2020240467A1; cited from earlier work"}}, "data": [{"molecule": "B1", "values": [{"measurement": "IC50", "setting": "[1]", "value": 1.5, "unit": "nM"}, {"measurement": "IC50", "setting": "[2]", "value": 0.55, "unit": "nM"}, {"measurement": "AUC", "setting": "[3]; Analysis Type ADC", "value": 12053.60, "unit": "µg·h/mL"}, {"measurement": "Cl_obs", "setting": "[3]; Analysis Type ADC", "value": 0.83, "unit": "mL/h/kg"}, {"measurement": "T-half", "setting": "[3]; Analysis Type ADC", "value": 154.59, "unit": "h"}, {"measurement": "AUC", "setting": "[3]; Analysis Type Total-Ab", "value": 35805.22, "unit": "µg·h/mL"}, {"measurement": "Cl_obs", "setting": "[3]; Analysis Type Total-Ab", "value": 0.28, "unit": "mL/h/kg"}, {"measurement": "T-half", "setting": "[3]; Analysis Type Total-Ab", "value": 374.37, "unit": "h"}, {"measurement": "HNSTD", "setting": "[4]", "value": 30, "unit": "mg/kg"}]}]}
